Data taken from patent EP4671273A1 (Anaveon AG, dated 2025).

Target: human IL-21 receptor (IL-21R) on cells (human, UniProt Q9HBE5 20-538; P31785 23-369)
Experiment: cell-based or functional assay

human IL-21 receptor (IL-21R) on cells, sequence (Q9HBE5 20-538, chain 1 of 2): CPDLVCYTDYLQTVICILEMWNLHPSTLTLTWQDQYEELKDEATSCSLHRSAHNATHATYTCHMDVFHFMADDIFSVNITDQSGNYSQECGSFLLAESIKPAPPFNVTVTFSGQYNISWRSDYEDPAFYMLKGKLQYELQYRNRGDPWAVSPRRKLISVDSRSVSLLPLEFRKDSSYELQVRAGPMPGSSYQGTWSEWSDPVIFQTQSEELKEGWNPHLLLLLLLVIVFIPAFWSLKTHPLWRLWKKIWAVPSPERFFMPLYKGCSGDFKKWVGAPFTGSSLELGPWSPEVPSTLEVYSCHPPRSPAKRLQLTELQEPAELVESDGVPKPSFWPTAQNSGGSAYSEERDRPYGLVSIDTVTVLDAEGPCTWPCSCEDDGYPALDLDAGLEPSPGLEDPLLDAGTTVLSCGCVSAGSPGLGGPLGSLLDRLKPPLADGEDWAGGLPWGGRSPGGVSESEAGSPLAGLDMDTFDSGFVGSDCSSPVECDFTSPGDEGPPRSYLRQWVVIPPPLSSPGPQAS
human IL-21 receptor (IL-21R) on cells, sequence (P31785 23-369, chain 2 of 2): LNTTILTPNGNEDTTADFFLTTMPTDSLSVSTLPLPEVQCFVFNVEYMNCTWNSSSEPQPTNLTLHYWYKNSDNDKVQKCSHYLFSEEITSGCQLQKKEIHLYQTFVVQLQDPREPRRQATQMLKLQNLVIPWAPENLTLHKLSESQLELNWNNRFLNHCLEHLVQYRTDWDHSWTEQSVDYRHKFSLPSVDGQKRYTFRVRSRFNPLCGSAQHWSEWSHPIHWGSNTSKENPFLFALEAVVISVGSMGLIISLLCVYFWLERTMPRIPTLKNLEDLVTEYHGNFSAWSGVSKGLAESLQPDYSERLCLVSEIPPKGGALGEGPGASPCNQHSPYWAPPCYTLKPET

EC50B, pSTAT3+ Jurkat PD-1 cells, PD-1 blocked | EC50NB, pSTAT3+ Jurkat PD-1 cells | Binder
2.3 nM | 39 pM | VCG677 (bispecific antibody, human IgG1, kappa, lambda, L234A L235A) heavy 1: EVQLLESGGGLVQPGGSLRLSCAASGFTFSINAMTWVRQAPGKGLEWVSTISGSGFSTYYADSLKGRFTISRDNSKNTLYLQMNSLRAEDTAVYYCAKEVYGDYWGQGTLVTVSSASTKGPSVFPLAPSSKSTSGGTAALGCLVKDYFPEPVTVSWNSGALTSGVHTFPAVLQSSGLYSLSSVVTVPSSSLGTQTYICNVNHKPSNTKVDKRVEPKSCDKTHTCPPCPAPEAAGGPSVFLFPPKPKDTLMISRTPEVTCVVVDVSHEDPEVKFNWYVDGVEVHNAKTKPREEQYNSTYRVVSVLTVLHQDWLNGKEYKCKVSNKALAAPIEKTISKAKGQPREPQVCTLPPSREEMTKNQVSLSCAVKGFYPSDIAVEWESNGQPENNYKTTPPVLDSDGSFFLVSKLTVDKSRWQQGNVFSCSVMHEALHNHYTQKSLSLSPGK light 1: not shown heavy 2: QVQLQESGPGLVKPSETLSLTCTVSGGSISSDFWGWIRQPPGKGLEWIGYISSRGSTNYNPSLKRRVTISVDTSRNQFSLKLSSVTAADTAVYYCARSAGVTDFDFWGQGTLVTVSSASTKGPSVFPLAPSSKSTSGGTAALGCLVKDYFPEPVTVSWNSGALTSGVHTFPAVLQSSGLYSLSSVVTVPSSSLGTQTYICNVNHKPSNTKVDKRVEPKSCDKTHTCPPCPAPEAAGGPSVFLFPPKPKDTLMISRTPEVTCVVVDVSHEDPEVKFNWYVDGVEVHNAKTKPREEQYNSTYRVVSVLTVLHQDWLNGKEYKCKVSNKALAAPIEKTISKAKGQPREPQVYTLPPCREEMTKNQVSLWCLVKGFYPSDIAVEWESNGQPENNYKTTPPVLDSDGSFFLYSKLTVDKSRWQQGNVFSCSVMHEALHNHYTQKSLSLSPGK light 2: not shown
0.97 nM | 36 pM | ZNP367 (bispecific antibody, human IgG1, kappa, lambda, L234A L235A) heavy 1: EVQLLESGGGLVQPGGSLRLSCAASGFTFSINAMTWVRQAPGKGLEWVSTISGSGFSTYYADSLKGRFTISRDNSKNTLYLQMNSLRAEDTAVYYCAKEVYGDYWGQGTLVTVSSASTKGPSVFPLAPSSKSTSGGTAALGCLVKDYFPEPVTVSWNSGALTSGVHTFPAVLQSSGLYSLSSVVTVPSSSLGTQTYICNVNHKPSNTKVDKRVEPKSCDKTHTCPPCPAPEAAGGPSVFLFPPKPKDTLMISRTPEVTCVVVDVSHEDPEVKFNWYVDGVEVHNAKTKPREEQYNSTYRVVSVLTVLHQDWLNGKEYKCKVSNKALAAPIEKTISKAKGQPREPQVCTLPPSREEMTKNQVSLSCAVKGFYPSDIAVEWESNGQPENNYKTTPPVLDSDGSFFLVSKLTVDKSRWQQGNVFSCSVMHEALHNHYTQKSLSLSPGK light 1: not shown heavy 2: QVQLQESGPGLVKPSETLSLTCTVSGGSISSDFWGWIRQPPGKGLEWIGYISSRGSTNYNPSLKRRVTISVDTSRNQFSLKLSSVTAADTAVYYCARSAGVTDFDFWGQGTLVTVSSASTKGPSVFPLAPSSKSTSGGTAALGCLVKDYFPEPVTVSWNSGALTSGVHTFPAVLQSSGLYSLSSVVTVPSSSLGTQTYICNVNHKPSNTKVDKRVEPKSCDKTHTCPPCPAPEAAGGPSVFLFPPKPKDTLMISRTPEVTCVVVDVSHEDPEVKFNWYVDGVEVHNAKTKPREEQYNSTYRVVSVLTVLHQDWLNGKEYKCKVSNKALAAPIEKTISKAKGQPREPQVYTLPPCREEMTKNQVSLWCLVKGFYPSDIAVEWESNGQPENNYKTTPPVLDSDGSFFLYSKLTVDKSRWQQGNVFSCSVMHEALHNHYTQKSLSLSPGK light 2: not shown
